# Data published in patent US20260273048A1, “METHODS OF IMPROVING TRANSPLANT SURVIVAL USING IL-2 RECEPTOR GAMMA CHAIN ANTIBODIES” (Regeneron Pharmaceuticals, Inc., priority 2023, published 2026).
# B1: REGN7257: fully human IL-2Rγ antibody comprising the HCVR of SEQ ID NO: 1 and the LCVR of SEQ ID NO:5 (antibody, V domains shown)
# VH: EVQLVESGGGLVQPGGSLRLSCAASGFIFSSYEMHWVRQAPGKGLEWISYISSSGTTIYYADSVKGRFTISRDNAKNSLYLHMNSLRAEDTAVYYCTRARITGTFDVFDIWGQGTMVTVSS
# VL: DIQMTQSPSSLSASVGDRVTITCRASQSISSYLNWYQQKPGKAPKLLIFAASNLQSGVPSRFSGSRSGTDFTLTISSLQPEDFATYYCQQNYNIPYTFGQGTKLEIK
# What was measured:
# [1] = test system: BALB/cJ tail skin graft on VG mice humanized for IL2RG; assay: In vivo skin graft rejection model, REGN7257 with MMF (Example 4); design: species or system mouse; conditions: REGN7257 25 mg/kg s.c. 2 times per week from 2 days prior to transplant; MMF 100 mg/kg i.p. daily from day of transplant; until rejection; FIG. 9
# Source text: (§1) BALB/cJ mice obtained from The Jackson Laboratory (Bar Harbor, ME) were used as skin graft donors, and MHC mismatched Velocigene® (VG) background mice (C57BL/6NTac (75%)/129S6SvEvTac (25%)) from the Regeneron Velocigene® breeding colony that were genetically modified to replace the endogenous IL2RG ectodomain with the corresponding human sequences were used as recipients. The skin graft was obtained from the tail of the donor mice. The skin was the peeled off using forceps and punched with a 10 mm diameter biopsy punch.
# REGN7257 was administered subcutaneously at doses of 25 mg/kg at a frequency of 2 times per week starting 2 days prior to transplant, and continuing until rejection. MMF was administered intraperitoneally daily at a dose 100 mg/kg starting on the day of transplant, and continuing until rejection. Recipients with the surgical site shaved were anesthetized by isoflurane via a nose cone and administered an analgesic (buprenorphine-sustained release) (ZooPharm). The shaved dorsal area was swabbed with applications of povidone-iodine and alcohol. The graft bed was created midway laterally between the dorsal and ventral sides of the mouse by pinching skin with forceps followed by skin excision utilizing a sterile 10 mm diameter biopsy skin punch. […]
# [2] = test system: BALB/cJ tail skin graft on VG mice humanized for IL2RG; assay: In vivo skin graft rejection model, REGN7257 monotherapy (Example 1); design: species or system mouse; conditions: 25 mg/kg s.c. 2 times per week starting 3 weeks prior to transplant until rejection
# Source text: as §1
# As detailed in Table 2 below, VG mice (humanized for IL2RG), used as graft recipients, were administered no treatment (negative control), an isotype control (REGN1945), or REGN7257 subcutaneously at doses 25 mg/kg at a frequency of 2 times per week starting 3 weeks prior to transplant, and continuing until rejection (FIG. 1). […]
# These grafts will display scabbing and contraction several […] from bandage removal. […] The complete rejection timepoint is recorded as the first day where 100% of the graft tissue was necrotic. Rejection onset was recorded as the first day where there were signs of rejection (i.e., redness). Significance was determined by Log-rank (Mantel-Cox) test with Bonferroni correction (adjusted p value 0.00555, K=9).
# [3] = test system: donor-specific antibodies (total IgG binding to CT26.WT cells); assay: Detection of donor specific antibodies by flow cytometry (Example 1); format: in vivo, mouse; conditions: blood sampled day 56 post-transplant; MFI at 1/512 serum dilution; FIG. 3
# Protocol: Detection of donor specific antibodies by flow cytometry: Blood was sampled at the day 56 post-transplant timepoint to assess formation of donor-specific antibodies. CT26.WT (ATCC® CRL-2638™) cells were cultured in tissue culture flasks to 80% confluent. Cells were washed with 1×DPBS and dissociated with TrypLE Express reagent (Gibco) by incubating at room temperature for 5 minutes and washing flask with complete RPMI 1640 media. Cells were then centrifuged (500 g, 10 minutes), and resuspended at 5 million cells/ml with 1×DPBS with 1:50 dilution of 4 μg/mL of Fc block (Tonbo) for 15 minutes at room temperature. The suspension was plated at 250,000 cells/well (50 μL) in a 384 well V-bottom plate.
# 50 μL of serially diluted sample serum from transplanted mice and from non-engrafted wild type VG mouse (C57BL/6NTac (75%)/129S6SvEvTac (25%)) and wild type BALB/cJ mouse obtained from The Jackson Laboratory was added to its respective well and incubated at 37° C. for 45 minutes. Following 2 washes with MACS buffer (500 g, 4 minutes), the cells were resuspended in 50 μL of LIVE/DEAD™ Fixable Blue Dead Cell Stain Kit (Invitrogen) diluted 1:500 in 1×DPBS at 50 μL total volume per well and incubated at room temperature for 15 minutes. […] Acquired events were analyzed with FlowJo (BD). […]
# [4] = test system: BALB/cJ tail skin graft on VG mice humanized for IL2RG; assay: In vivo skin graft rejection model, REGN7257 induction with abatacept maintenance (Example 2); design: species or system mouse; conditions: induction: 2 doses 25 mg/kg s.c. (2 days prior and day of transplant); maintenance: 25 mg/kg s.c. 2 times per week from day of transplant until rejection; FIG. 5
# Protocol: (2) “Scabbing” and contraction of the graft at later times was used as indicators of graft rejection. The complete rejection timepoint is recorded as the first day where 100% of the graft tissue was necrotic. Significance was determined by Log-rank (Mantel-Cox) test with Bonferroni correction (α=0.005, k=10).
Molecule,Median Survival Time [MST] of skin graft [1],overall skin graft survival (time to complete rejection) ([2]; FIG. 2B),"onset of skin graft rejection ([2]; vs no mAb and isotype control, FIG. 2A)",generation of donor-specific antibodies [3],skin graft median survival time [MST] (time to complete skin graft rejection) [4] [days]
"COc1c(C)c2c(c(O)c1C/C=C(\C)CCC(=O)OCCN1CCOCC1)C(=O)OC2 [MMF, mycophenolate mofetil, reference compound]",10,–,–,–,–
B1,12,improved,delayed,prevented,11
